Data taken from the supplement of paper PMC9112550, “Optimization of the antimicrobial peptide Bac7 by deep mutational scanning” (BMC Biology, 2022).

System: Escherichia coli TOP10
Test: shrunken log2 fold change of peptide-encoding DNA abundance (4.5 h post-induction vs induction); higher = less antimicrobial activity (less host growth inhibition)
Details: time post-induction: 4.5 h; library: site-saturation at positions 5, 18, 19, 20
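Also: peptides expressed intracellularly from a pBAD plasmid library in pooled LB shake-flask culture, induced with 0.3% L-arabinose, DNA abundance read by NGS, three biological replicates, DESeq2 with apeglm shrinkage.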

Row | Sequence | shrunken log2 fold change
1 | RRIRTRPPRLPRPRPRPYGCPRP | -0.00664
2 | RRIRMRPPRLPRPRPRPHSFPRP | 0.0932
3 | RRIRKRPPRLPRPRPRPYWDPRP | -0.219
4 | RRIRSRPPRLPRPRPRPMRAPRP | 0.706
5 | RRIRMRPPRLPRPRPRPCFMPRP | -0.136
6 | RRIRNRPPRLPRPRPRPSWAPRP | -0.249
7 | RRIRCRPPRLPRPRPRPPMEPRP | 0.245
8 | RRIRVRPPRLPRPRPRPRKVPRP | -0.0445
9 | RRIRLRPPRLPRPRPRPLLSPRP | -0.327
10 | RRIRARPPRLPRPRPRPWCSPRP | -0.155
11 | RRIRIRPPRLPRPRPRPEPHPRP | -0.0648
12 | RRIRYRPPRLPRPRPRPSWVPRP | -0.597
13 | RRIRQRPPRLPRPRPRPPCRPRP | -0.0419
14 | RRIRDRPPRLPRPRPRPHFCPRP | 0.23
15 | RRIRTRPPRLPRPRPRPPGNPRP | -0.0517
16 | RRIRGRPPRLPRPRPRPGRCPRP | 1.09
17 | RRIRSRPPRLPRPRPRPKWPPRP | 0.146
18 | RRIRTRPPRLPRPRPRPMFWPRP | 0.285
19 | RRIRNRPPRLPRPRPRPPTRPRP | 0.29
20 | RRIRARPPRLPRPRPRPFVNPRP | 0.164
21 | RRIRIRPPRLPRPRPRPGAWPRP | 0.215
22 | RRIRPRPPRLPRPRPRPDYTPRP | -0.957
23 | RRIRERPPRLPRPRPRPTCTPRP | 0.199
24 | RRIRPRPPRLPRPRPRPWPTPRP | 0.438
25 | RRIRYRPPRLPRPRPRPCETPRP | 0.00591

Row | Sequence | shrunken log2 fold change
26 | RRIRMRPPRLPRPRPRPMWWPRP | -0.00447
27 | RRIRERPPRLPRPRPRPHPQPRP | -0.103
28 | RRIRLRPPRLPRPRPRPLTMPRP | -0.427
29 | RRIRGRPPRLPRPRPRPNMYPRP | -0.185
30 | RRIRFRPPRLPRPRPRPMKYPRP | -0.664
31 | RRIRDRPPRLPRPRPRPSLYPRP | 0.266
32 | RRIRCRPPRLPRPRPRPQFYPRP | -0.782
33 | RRIRMRPPRLPRPRPRPPWSPRP | 0.596
34 | RRIRLRPPRLPRPRPRPKWIPRP | 0.137
35 | RRIRDRPPRLPRPRPRPWCGPRP | -0.00113
36 | RRIRHRPPRLPRPRPRPKTPPRP | 0.155
37 | RRIRNRPPRLPRPRPRPWCFPRP | -0.472
38 | RRIRTRPPRLPRPRPRPGVLPRP | 0.08
39 | RRIRVRPPRLPRPRPRPPYCPRP | -0.0177
40 | RRIRMRPPRLPRPRPRPTLNPRP | 0.299
41 | RRIRTRPPRLPRPRPRPMWYPRP | -0.602
42 | RRIRKRPPRLPRPRPRPINVPRP | 0.095
43 | RRIRTRPPRLPRPRPRPIPSPRP | -0.236
44 | RRIRKRPPRLPRPRPRPGWRPRP | 0.348
45 | RRIRPRPPRLPRPRPRPGNVPRP | -0.344
46 | RRIRPRPPRLPRPRPRPIANPRP | -0.12
47 | RRIRDRPPRLPRPRPRPKQDPRP | 0.172
48 | RRIRRRPPRLPRPRPRPAMNPRP | 0.0496
49 | RRIRWRPPRLPRPRPRPMVAPRP | 0.457
50 | RRIRERPPRLPRPRPRPASQPRP | -0.0177

Row | Sequence | shrunken log2 fold change
51 | RRIRMRPPRLPRPRPRPCSGPRP | -0.146
52 | RRIRDRPPRLPRPRPRPQIEPRP | -0.0186
53 | RRIRCRPPRLPRPRPRPASPPRP | 0.117
54 | RRIRVRPPRLPRPRPRPQGIPRP | 0.0752
55 | RRIRDRPPRLPRPRPRPVMHPRP | -0.112
56 | RRIRWRPPRLPRPRPRPLNKPRP | -0.397
57 | RRIRTRPPRLPRPRPRPCFGPRP | 0.000833
58 | RRIRGRPPRLPRPRPRPIWRPRP | 0.744
59 | RRIRVRPPRLPRPRPRPPNKPRP | -0.0216
60 | RRIRFRPPRLPRPRPRPACPPRP | 0.12
61 | RRIRQRPPRLPRPRPRPVWPPRP | 0.303
62 | RRIRIRPPRLPRPRPRPNGFPRP | -0.114
63 | RRIRNRPPRLPRPRPRPQRDPRP | 0.0103
64 | RRIRTRPPRLPRPRPRPNDMPRP | -0.209
65 | RRIRIRPPRLPRPRPRPPEPPRP | 0.105
66 | RRIRHRPPRLPRPRPRPLMVPRP | -0.474
67 | RRIRERPPRLPRPRPRPTGGPRP | 0.342
68 | RRIRERPPRLPRPRPRPNKMPRP | -0.324
69 | RRIRTRPPRLPRPRPRPAFTPRP | 0.0137
70 | RRIRDRPPRLPRPRPRPIGWPRP | -0.0185
71 | RRIRARPPRLPRPRPRPSNKPRP | -0.31
72 | RRIRERPPRLPRPRPRPAKGPRP | -0.321
73 | RRIRQRPPRLPRPRPRPETPPRP | 0.495
74 | RRIRVRPPRLPRPRPRPECEPRP | 0.605
75 | RRIRRRPPRLPRPRPRPDSEPRP | 0.036

Row | Sequence | shrunken log2 fold change
76 | RRIRDRPPRLPRPRPRPQAAPRP | 0.0147
77 | RRIRKRPPRLPRPRPRPNCEPRP | 0.082
78 | RRIRHRPPRLPRPRPRPQTEPRP | -0.102
79 | RRIRNRPPRLPRPRPRPQHNPRP | -0.625
80 | RRIRWRPPRLPRPRPRPSSAPRP | 0.443
81 | RRIRCRPPRLPRPRPRPTCFPRP | 0.152
82 | RRIRLRPPRLPRPRPRPWLAPRP | -0.218
83 | RRIRIRPPRLPRPRPRPSTCPRP | -0.548
84 | RRIRLRPPRLPRPRPRPFVPPRP | -0.162
85 | RRIRWRPPRLPRPRPRPFITPRP | -0.167
86 | RRIRLRPPRLPRPRPRPASKPRP | -0.116
87 | RRIRKRPPRLPRPRPRPSTMPRP | -0.145
88 | RRIRNRPPRLPRPRPRPCVLPRP | -0.202
89 | RRIRSRPPRLPRPRPRPLGRPRP | 0.351
90 | RRIRVRPPRLPRPRPRPEFCPRP | 0.267
91 | RRIRDRPPRLPRPRPRPHPYPRP | 0.0304
92 | RRIRGRPPRLPRPRPRPCNDPRP | 0.376
93 | RRIRERPPRLPRPRPRPEPHPRP | -0.122
94 | RRIRRRPPRLPRPRPRPAYWPRP | 0.135
95 | RRIRYRPPRLPRPRPRPGICPRP | -0.179
96 | RRIRGRPPRLPRPRPRPMCEPRP | 2.46
97 | RRIRTRPPRLPRPRPRPPDEPRP | 0.0184
98 | RRIRRRPPRLPRPRPRPCLNPRP | -0.4
99 | RRIRVRPPRLPRPRPRPCNIPRP | 0.0254
100 | RRIRERPPRLPRPRPRPVREPRP | 0.242

Row | Sequence | shrunken log2 fold change
101 | RRIRFRPPRLPRPRPRPCKMPRP | 0.111
102 | RRIRGRPPRLPRPRPRPQCAPRP | 1.11
103 | RRIRERPPRLPRPRPRPYHGPRP | -0.47
104 | RRIRFRPPRLPRPRPRPYFKPRP | -0.848
105 | RRIRARPPRLPRPRPRPMSQPRP | 0.235
106 | RRIRNRPPRLPRPRPRPKYQPRP | -0.0997
107 | RRIRDRPPRLPRPRPRPVRTPRP | -0.176
108 | RRIRTRPPRLPRPRPRPWCCPRP | -0.227
109 | RRIRRRPPRLPRPRPRPARDPRP | 0.185
110 | RRIRYRPPRLPRPRPRPQMFPRP | -0.0885
111 | RRIRYRPPRLPRPRPRPRLQPRP | 0.196
112 | RRIRSRPPRLPRPRPRPRMGPRP | 0.234
113 | RRIRHRPPRLPRPRPRPTELPRP | 0.0215
114 | RRIRERPPRLPRPRPRPQLCPRP | 0.0651
115 | RRIRSRPPRLPRPRPRPLMFPRP | -0.321
116 | RRIRPRPPRLPRPRPRPIKSPRP | -0.0993
117 | RRIRVRPPRLPRPRPRPTTDPRP | -0.0625
118 | RRIRARPPRLPRPRPRPWPMPRP | 0.18
119 | RRIRNRPPRLPRPRPRPRAPPRP | 0.972
120 | RRIRLRPPRLPRPRPRPVAIPRP | 0.0902
121 | RRIRCRPPRLPRPRPRPLPYPRP | -0.804
122 | RRIRGRPPRLPRPRPRPKGFPRP | -0.0463
123 | RRIRVRPPRLPRPRPRPYIGPRP | -0.661
124 | RRIRGRPPRLPRPRPRPESYPRP | 0.0402
125 | RRIRFRPPRLPRPRPRPNRPPRP | -0.0705
